Measurements reported in patent US9018171B2, “Uses of an immunomodulatory protein (GMI) from Ganoderma microsporum” (Mycomagic Biotechnology Co., Ltd., priority 2010, dated 2015).

Key:
NCI60 tumour cell lines = experiment: NCI60 in vitro screening, one dose, whole panel; assay type: cell-based; conditions: mean over all cell lines
MDA-MB-468 = experiment: NCI60 in vitro screening, Breast Cancer; assay type: cell-based
CAKI-1 = experiment: NCI60 in vitro screening, Renal Cancer; assay type: cell-based
SK-MEL-5 = experiment: NCI60 in vitro screening, Melanoma; assay type: cell-based
SNB-19 = experiment: NCI60 in vitro screening, CNS Cancer; assay type: cell-based
SF-539 = experiment: NCI60 in vitro screening, CNS Cancer; assay type: cell-based
SW-620 = experiment: NCI60 in vitro screening, Colon Cancer; assay type: cell-based
T-47D = experiment: NCI60 in vitro screening, Breast Cancer; assay type: cell-based
U251 = experiment: NCI60 in vitro screening, CNS Cancer; assay type: cell-based; conditions: U251, one dose
A549/V16 = experiment: MTT assay, drug sensitivity; assay type: cell-based, human; conditions: A549/V16, 48 h, MTT
Experimental: (§1) A549 cell line and resistant A549 cell sublines (A549/D16, A549/D32 and A549/V16) (5000 cells/well of 96-well plate) were treated with increased doses concentrations (μM) of GMI from Ganoderma microsporum, docetaxel, vincristine and doxorubicin for 48 h, respectively. Cell viability was measured by MTT assay and the results are presented as the calculated cell growth inhibitory ratio. Experiments were repeated three times.

A549/D16 = experiment: MTT assay, drug sensitivity; assay type: cell-based, human; conditions: A549/D16, 48 h, MTT
Experimental: as §1

A549 = experiment: MTT assay, drug sensitivity; assay type: cell-based, human; conditions: A549, 48 h, MTT
Experimental: as §1

MDA-MB-435 = experiment: NCI60 in vitro screening, Melanoma; assay type: cell-based
K-562 = experiment: NCI60 in vitro screening, Leukemia; assay type: cell-based
CCRF-CEM = experiment: NCI60 in vitro screening, Leukemia; assay type: cell-based
KM12 = experiment: NCI60 in vitro screening, Colon Cancer; assay type: cell-based
MCF7 = experiment: NCI60 in vitro screening, Breast Cancer; assay type: cell-based
IGROV1 = experiment: NCI60 in vitro screening, Ovarian Cancer; assay type: cell-based
SR = experiment: NCI60 in vitro screening, Leukemia; assay type: cell-based
RXF 393 = experiment: NCI60 in vitro screening, Renal Cancer; assay type: cell-based

B1: GMI: immunomodulatory protein from Ganoderma microsporum, amino acid sequence SEQ ID NO: 3, manufactured by Mycomagic Biotechnology Co., Ltd. (protein, listed as Ganoderma microsporum)
chain: MSDTALIFTLAWNVKQLAFDYTPNWGRGRPSSFIDTVTFPTVLTDKAYTYRVVVSGKDLGVRPSYAVESDGSQKINFLEYNSGYGIADTNTIQVYVIDPDTGNNFIVAQWN
Growth Percent, Mean (NCI60 tumour cell lines): 64.66% | TGI (MDA-MB-468; MDA-MB-468): 1.18E1 | Percent Growth (MDA-MB-468; MDA-MB-468, Log10 Concentration 0.1): 115% | Percent Growth (MDA-MB-468; MDA-MB-468, Log10 Concentration 1.1): −3% | Percent Growth (MDA-MB-468; MDA-MB-468, Log10 Concentration 2.1): −24% | Percent Growth (MDA-MB-468; MDA-MB-468, Log10 Concentration −0.9): 100% | Percent Growth (MDA-MB-468; MDA-MB-468, Log10 Concentration −1.9): 104% | Growth Percent (MDA-MB-468; MDA-MB-468, one dose): 50.90% | GI50 (MDA-MB-468; MDA-MB-468, in µg/mL): 4.45E0 | TGI (CAKI-1; CAKI-1): 7.29E1 | Percent Growth (CAKI-1; CAKI-1, Log10 Concentration 0.1): 98% | Percent Growth (CAKI-1; CAKI-1, Log10 Concentration 1.1): 47% | Percent Growth (CAKI-1; CAKI-1, Log10 Concentration 2.1): −14% | Percent Growth (CAKI-1; CAKI-1, Log10 Concentration −0.9): 100% | Percent Growth (CAKI-1; CAKI-1, Log10 Concentration −1.9): 100% | Growth Percent (CAKI-1; CAKI-1, one dose): 96.04% | GI50 (CAKI-1; CAKI-1, in µg/mL): 1.08E1 | TGI (SK-MEL-5; SK-MEL-5): 4.26E1 | Percent Growth (SK-MEL-5; SK-MEL-5, Log10 Concentration 0.1): 103% | Percent Growth (SK-MEL-5; SK-MEL-5, Log10 Concentration 1.1): 94% | Percent Growth (SK-MEL-5; SK-MEL-5, Log10 Concentration 2.1): −83% | Percent Growth (SK-MEL-5; SK-MEL-5, Log10 Concentration −0.9): 101% | Percent Growth (SK-MEL-5; SK-MEL-5, Log10 Concentration −1.9): 101% | Growth Percent (SK-MEL-5; SK-MEL-5, one dose): 83.26% | GI50 (SK-MEL-5; SK-MEL-5, in µg/mL): 2.22E1 | LC50 (SK-MEL-5; SK-MEL-5, in µg/mL): 8.17E1 | TGI (SNB-19; SNB-19): 4.27E1 | Percent Growth (SNB-19; SNB-19, Log10 Concentration 0.1): 95% | Percent Growth (SNB-19; SNB-19, Log10 Concentration 1.1): 66% | Percent Growth (SNB-19; SNB-19, Log10 Concentration 2.1): −58% | Percent Growth (SNB-19; SNB-19, Log10 Concentration −0.9): 98% | Percent Growth (SNB-19; SNB-19, Log10 Concentration −1.9): 98% | Growth Percent (SNB-19; SNB-19, one dose): 58.70% | GI50 (SNB-19; SNB-19, in µg/mL): 1.69E1 | LC50 (SNB-19; SNB-19, in µg/mL): 1.08E2 | TGI (SF-539; SF-539): 6.02E1 | Percent Growth (SF-539; SF-539, Log10 Concentration 0.1): 102% | Percent Growth (SF-539; SF-539, Log10 Concentration 1.1): 80% | Percent Growth (SF-539; SF-539, Log10 Concentration 2.1): −37% | Percent Growth (SF-539; SF-539, Log10 Concentration −0.9): 111% | Percent Growth (SF-539; SF-539, Log10 Concentration −1.9): 108% | Growth Percent (SF-539; SF-539, one dose): 48.19% | GI50 (SF-539; SF-539, in µg/mL): 2.26E1 | TGI (SW-620; SW-620): >1.25E2 | Percent Growth (SW-620; SW-620, Log10 Concentration 0.1): 102% | Percent Growth (SW-620; SW-620, Log10 Concentration 1.1): 95% | Percent Growth (SW-620; SW-620, Log10 Concentration 2.1): 53% | Percent Growth (SW-620; SW-620, Log10 Concentration −0.9): 100% | Percent Growth (SW-620; SW-620, Log10 Concentration −1.9): 102% | Growth Percent (SW-620; SW-620, one dose): 87.57% | TGI (T-47D): >1.25E2 | Percent Growth (T-47D; Log10 Concentration 0.1): 88% | Percent Growth (T-47D; Log10 Concentration 1.1): 43% | Percent Growth (T-47D; Log10 Concentration 2.1): 13% | Percent Growth (T-47D; Log10 Concentration −0.9): 96% | Percent Growth (T-47D; Log10 Concentration −1.9): 101% | GI50 (T-47D; in µg/mL): 8.63E0 | Growth Percent (T-47D; one dose): 28.25% | Growth Percent (U251): 69.04% | IC50 ± SD (A549/V16): 13.10 ± 0.17 µg/mL | IC50 ± SD (A549/D16): 11.37 ± 0.55 µg/mL | IC50 ± SD (A549): 15.73 ± 0.42 µg/mL | TGI (MDA-MB-435; MDA-MB-435): >1.25E2 | Percent Growth (MDA-MB-435; MDA-MB-435, Log10 Concentration 0.1): 91% | Percent Growth (MDA-MB-435; MDA-MB-435, Log10 Concentration 1.1): 85% | Percent Growth (MDA-MB-435; MDA-MB-435, Log10 Concentration 2.1): 3% | Percent Growth (MDA-MB-435; MDA-MB-435, Log10 Concentration −0.9): 96% | Percent Growth (MDA-MB-435; MDA-MB-435, Log10 Concentration −1.9): 101% | Growth Percent (MDA-MB-435; MDA-MB-435, one dose): 79.29% | GI50 (MDA-MB-435; MDA-MB-435, in µg/mL): 3.34E1 | TGI (K-562; K-562): >1.25E2 | Percent Growth (K-562; K-562, Log10 Concentration 0.1): 101% | Percent Growth (K-562; K-562, Log10 Concentration 1.1): 97% | Percent Growth (K-562; K-562, Log10 Concentration 2.1): 90% | Percent Growth (K-562; K-562, Log10 Concentration −0.9): 98% | Percent Growth (K-562; K-562, Log10 Concentration −1.9): 96% | Growth Percent (K-562; K-562, one dose): 125.37% | TGI (CCRF-CEM): >1.25E2 | Percent Growth (CCRF-CEM; Log10 Concentration 0.1): 97% | Percent Growth (CCRF-CEM; Log10 Concentration 1.1): 58% | Percent Growth (CCRF-CEM; Log10 Concentration 2.1): 18% | Percent Growth (CCRF-CEM; Log10 Concentration −0.9): 101% | Percent Growth (CCRF-CEM; Log10 Concentration −1.9): 104% | GI50 (CCRF-CEM; in µg/mL): 2.02E1 | TGI (KM12; KM12): >1.25E2 | Percent Growth (KM12; KM12, Log10 Concentration 0.1): 104% | Percent Growth (KM12; KM12, Log10 Concentration 1.1): 89% | Percent Growth (KM12; KM12, Log10 Concentration 2.1): 43% | Percent Growth (KM12; KM12, Log10 Concentration −0.9): 96% | Percent Growth (KM12; KM12, Log10 Concentration −1.9): 100% | Growth Percent (KM12; KM12, one dose): 62.96% | GI50 (KM12; KM12, in µg/mL): 8.92E1 | TGI (MCF7; MCF7): >1.25E2 | Percent Growth (MCF7; MCF7, Log10 Concentration 0.1): 93% | Percent Growth (MCF7; MCF7, Log10 Concentration 1.1): 49% | Percent Growth (MCF7; MCF7, Log10 Concentration 2.1): 23% | Percent Growth (MCF7; MCF7, Log10 Concentration −0.9): 104% | Percent Growth (MCF7; MCF7, Log10 Concentration −1.9): 100% | Growth Percent (MCF7; MCF7, one dose): 42.68% | GI50 (MCF7; MCF7, in µg/mL): 1.15E1 | TGI (IGROV1; IGROV1): >1.25E2 | Percent Growth (IGROV1; IGROV1, Log10 Concentration 0.1): 117% | Percent Growth (IGROV1; IGROV1, Log10 Concentration 1.1): 62% | Percent Growth (IGROV1; IGROV1, Log10 Concentration 2.1): 30% | Percent Growth (IGROV1; IGROV1, Log10 Concentration −0.9): 98% | Percent Growth (IGROV1; IGROV1, Log10 Concentration −1.9): 103% | Growth Percent (IGROV1; IGROV1, one dose): 30.07% | GI50 (IGROV1; IGROV1, in µg/mL): 2.94E1 | TGI (SR): >1.25E2 | Percent Growth (SR; Log10 Concentration 0.1): 96% | Percent Growth (SR; Log10 Concentration 1.1): 17% | Percent Growth (SR; Log10 Concentration 2.1): 1% | Percent Growth (SR; Log10 Concentration −0.9): 96% | Percent Growth (SR; Log10 Concentration −1.9): 98% | GI50 (SR; in µg/mL): 4.79E0 | Growth Percent (SR; one dose): 32.47% | TGI (RXF 393; RXF 393): 4.72E1 | Percent Growth (RXF 393; RXF 393, Log10 Concentration 0.1): 101% | Percent Growth (RXF 393; RXF 393, Log10 Concentration 1.1): 76% | Percent Growth (RXF 393; RXF 393, Log10 Concentration 2.1): −56% | Percent Growth (RXF 393; RXF 393, Log10 Concentration −0.9): 101% | Percent Growth (RXF 393; RXF 393, Log10 Concentration −1.9): 101% | Growth Percent (RXF 393; RXF 393, one dose): 38.93% | GI50 (RXF 393; RXF 393, in µg/mL): 1.97E1 | LC50 (RXF 393; RXF 393, in µg/mL): 1.13E2
